Assay results taken from patent publication US6465220B1, “Glycosylation using GalNac-T4 transferase” (GlycoZym ApS, priority 1998, dated 2002).
Like-named read-outs stand apart in the source and are kept apart here. Ends that are not written are not given here.

Legend:
[1] = biological target: T1, GalNAc-T1 (Homo sapiens, UniProt Q10472); conditions: donor substrate; data from Wandall et al.; cited from earlier work
T1 construct: Control constructs pAcGP67-GalNAc-T1-sol, pAcGP67-GalNAc-T2-sol, pAcGP67-GalNAc-T3-sol, and pAcGP67-O^2-sol were prepared as previously described; made in house; host or cells: insect cells (baculovirus, pAcGP67)
T1 sequence (Q10472 41-559 limits assumed): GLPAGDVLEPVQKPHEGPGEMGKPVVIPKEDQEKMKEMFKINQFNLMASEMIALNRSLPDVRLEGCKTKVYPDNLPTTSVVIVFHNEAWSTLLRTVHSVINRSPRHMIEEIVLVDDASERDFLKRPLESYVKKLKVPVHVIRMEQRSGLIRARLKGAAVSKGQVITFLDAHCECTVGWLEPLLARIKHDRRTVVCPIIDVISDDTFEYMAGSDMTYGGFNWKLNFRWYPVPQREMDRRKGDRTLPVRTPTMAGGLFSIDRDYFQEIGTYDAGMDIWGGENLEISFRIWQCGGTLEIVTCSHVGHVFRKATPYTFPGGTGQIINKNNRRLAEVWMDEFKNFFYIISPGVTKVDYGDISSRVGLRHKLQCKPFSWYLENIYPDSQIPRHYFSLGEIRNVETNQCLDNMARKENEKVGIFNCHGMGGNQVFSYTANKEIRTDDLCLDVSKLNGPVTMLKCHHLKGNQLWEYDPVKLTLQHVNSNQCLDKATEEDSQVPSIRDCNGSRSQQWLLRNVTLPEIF

[2] = biological target: T2, GalNAc-T2 (Homo sapiens, UniProt Q10471); conditions: donor substrate; data from Wandall et al.; cited from earlier work
T2 construct: Control constructs pAcGP67-GalNAc-T1-sol, pAcGP67-GalNAc-T2-sol, pAcGP67-GalNAc-T3-sol, and pAcGP67-O^2-sol were prepared as previously described; made in house; host or cells: insect cells (baculovirus, pAcGP67)

[3] = biological target: T3, GalNAc-T3 (Homo sapiens, UniProt Q14435); conditions: donor substrate; data from Wandall et al.; cited from earlier work
T3 construct: Control constructs pAcGP67-GalNAc-T1-sol, pAcGP67-GalNAc-T2-sol, pAcGP67-GalNAc-T3-sol, and pAcGP67-O^2-sol were prepared as previously described; made in house; host or cells: insect cells (baculovirus, pAcGP67)
T3 sequence (Q14435 38-633 limits assumed): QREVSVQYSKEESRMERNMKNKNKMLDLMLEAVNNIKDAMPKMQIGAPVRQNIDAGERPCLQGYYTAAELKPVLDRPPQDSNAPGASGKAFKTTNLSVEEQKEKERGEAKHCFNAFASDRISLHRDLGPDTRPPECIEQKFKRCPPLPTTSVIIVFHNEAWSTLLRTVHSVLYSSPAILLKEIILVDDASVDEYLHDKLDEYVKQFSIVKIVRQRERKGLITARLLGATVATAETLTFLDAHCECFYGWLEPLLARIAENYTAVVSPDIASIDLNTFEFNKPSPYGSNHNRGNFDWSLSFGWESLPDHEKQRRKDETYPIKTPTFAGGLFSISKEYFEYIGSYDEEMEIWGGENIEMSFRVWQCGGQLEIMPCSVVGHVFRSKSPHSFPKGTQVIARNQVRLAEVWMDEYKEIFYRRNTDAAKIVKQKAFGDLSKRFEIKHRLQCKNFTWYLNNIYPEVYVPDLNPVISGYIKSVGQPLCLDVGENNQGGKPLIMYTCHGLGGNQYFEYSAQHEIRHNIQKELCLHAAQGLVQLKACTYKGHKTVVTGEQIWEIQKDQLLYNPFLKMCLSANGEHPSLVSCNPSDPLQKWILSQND

[4] = biological target: T4, GalNAc-T4 (Homo sapiens, UniProt Q8N4A0); experiment: GalNAc-transferase assay with purified recombinant GalNAc-T4; type: biochemical; conditions: for GalNAc-T4 activity with substrate (in words): purified GalNAc-T4
T4 construct: made in house; host or cells: High Five insect cells (baculovirus, pAcGP67 vector)
Protocol: (§1) In the examples, GalNAc-transferase assays were performed in 50 μl total reaction mixtures containing 25 mM cacodylate (pH 7.5), 10 mM MnCl2, 0.1-0.25% Triton X-100, 150-200 μM UDP-[^14C]-GalNAc (4,000 cpm/nmole) (Amersham) and 0.06-1 mM acceptor peptides. Peptides were either synthesized or obtained from Carlbiotech (Copenhagen), or Neosystems (Strasbourg), and quality was ascertained by amino acid analysis and mass spectrometry. Peptides Muc-1a, Muc-1b, and TAP24, were derived from the tandem repeat of human MUC1, Gendler et al., J. Biol. Chem. 265:15286 (1990), and Muc2, Muc5AC, and Muc7 from the tandem repeats of MUC2, MUC5AC, and MUC7, respectively. Gum et al., J. Biol. Chem. 264:6480 (1989); Porchet et al., Biochem. Soc. Trans. 23:800 (1995); Bobek et al., J. Biol. Chem. 268:20563 (1993). GalNAc4TAP24 was produced by in vitro glycosylation using GalNAc-T2 as described in Wandall et al., J. Biol. Chem. 272:23503 (1997). Products were quantified by scintillation counting after chromatography on Dowex-1, octadecyl silica cartridges (Bakerbond), or HPLC (PC3.2/3 or mRPC C2/C18 SC2.1/10 Pharmacia, Smart System). Products produced by in vitro glycosylation were in most cases also confirmed by mass spectrometry.
In this example, GalNAc-T4 was expressed in Sf9 insect cells. Expression constructs designed to contain amino acid residues 32-578 of the coding sequence of the putative GalNAc-T4 gene shown in SEQ ID NO:1 prepared by genomic PCR of two clones containing GalNAc-T4 (described in Bennett et al. (1998), supra) were cloned into a BamHI site of the expression vector pAcGP67 (Pharmingen), and the expression construct was sequenced. The constructs pAcGP67-GalNAc-T4506Vsol and pAcGP67-GalNAc-T4506 I sol, were designed to yield a putative soluble form of the GalNAc-T4 protein with an N-terminal end positioned immediately C-terminal to a potential transmembrane domain and including the entire sequence expected to contain the catalytic domain. […] Res. Comm. 211:347 (1995).
The activities presented in Table I were obtained with purified GalNAc-T4 and -T2, and are expressed as mU/mg (the concentration of enzyme protein estimated by SDS-PAGE using BSA as standard).

[5] = biological target: T2, GalNAc-T2; experiment: GalNAc-transferase assay with purified recombinant GalNAc-T2; type: biochemical
Protocol: as §1, with “The following examples are provided to illustrate certain preferred embodiments of the invention, and should be considered as illustration and not as limitation. In” for “In”
(§2) In this example, GalNAc-T4 was expressed in Sf9 insect cells. Expression constructs designed to contain amino acid residues 32-578 of the coding sequence of the putative GalNAc-T4 gene shown in SEQ ID NO:1 prepared by genomic PCR of two clones containing GalNAc-T4 (described in Bennett et al. (1998), supra) were cloned into a BamHI site of the expression vector pAcGP67 (Pharmingen), and the expression construct was sequenced. The constructs pAcGP67-GalNAc-T4506Vsol and pAcGP67-GalNAc-T4506 I sol, were designed to yield a putative soluble form of the GalNAc-T4 protein with an N-terminal end positioned immediately C-terminal to a potential transmembrane domain and including the entire sequence expected to contain the catalytic domain. Control constructs pAcGP67-GalNAc-T1-sol, pAcGP67-GalNAc-T2-sol, pAcGP67-GalNAc-T3-sol, and pAcGP67-O^2-sol were prepared as previously described in White et al., J. Biol. Chem 270:24156 (1995); Bennett et al., J. Biol. Chem. 271:17006 (1996); and Bennett et al., Biochem. Biophys. Res. Comm. 211:347 (1995).
Activities measured with the mucin derived substrates, Muc7, EA2, and Muc2 (see Table I for structures and SEQ ID NOs:19, 25 and 18, respectively), were only 2-7 fold over background values. Very low activities with a few other substrates were also observed, but for many of the “mucin-like” substrates a relative high background with Sf9 cells infected with irrelevant constructs made assessment difficult. GalNAc-T4 was expressed in High Five cells and purified to near homogeneity, however, very low endogenous activity was detected with some substrates in the same fractions when medium from cells infected with irrelevant expression constructs were used in the same purification strategy. The activities presented in Table I were obtained with purified GalNAc-T4 and -T2, and are expressed as mU/mg (the concentration of enzyme protein estimated by SDS-PAGE using BSA as standard). The highest activities with GalNAc-T4 were found from assays of Sf9 medium with the mucin peptides Muc7, EA2, and Muc2, however, the efficiencies with these substrates were considerably lower than GalNAc-T2.

[6] = biological target: T1, GalNAc-T1; experiment: GalNAc-transferase assay with purified recombinant GalNAc-T1; type: biochemical; conditions: acceptor substrate
Protocol: as §1, with “The following examples are provided to illustrate certain preferred embodiments of the invention, and should be considered as illustration and not as limitation. In” for “In”
In this example, GalNAc-T4 was expressed in Sf9 insect cells. Expression constructs designed to contain amino acid residues 32-578 of the coding sequence of the putative GalNAc-T4 gene shown in SEQ ID NO:1 prepared by genomic PCR of two clones containing GalNAc-T4 (described in Bennett et al. (1998), supra) were cloned into a BamHI site of the expression vector pAcGP67 (Pharmingen), and the expression construct was sequenced. […]

[7] = biological target: T3, GalNAc-T3; experiment: GalNAc-transferase assay with purified recombinant GalNAc-T3; type: biochemical
Protocol: as §1, with “The following examples are provided to illustrate certain preferred embodiments of the invention, and should be considered as illustration and not as limitation. In” for “In”
as §2

Molecule: CC(=O)N[C@H]1[C@@H](OP(=O)(O)OP(=O)(O)OC[C@H]2O[C@@H](n3ccc(=O)[nH]c3=O)[C@H](O)[C@@H]2O)O[C@H](CO)[C@H](O)[C@@H]1O [UDP-GalNAc, UDP-N-acetylgalactosamine]
- Km [1]: 62 µM
- Km [2]: 10 µM
- Km [3]: 29 µM
- Km ([4]; donor substrate, saturating concentration of Muc7 as substrate, read-out: Km GalNAc-T4): 160 µM
- Km ([4]; using the Muc7 acceptor substrate, read-out: Km of purified GalNAc-T4 for UDP-GalNAc): 160 µM

Molecule: QATEYEYLDYDFLPEC [PSGL-1a]
- GalNAc-T2 activity with acceptor peptide ([5]; 0.06 mM peptide in 50-μl assay): 0.0 milliunits/mg
- GalNAc-T2 activity with acceptor peptide ([5]; 0.25 mM peptide in 50-μl assay): 0.0 milliunits/mg
- GalNAc-T4 activity with substrate (in words) [4]: not

Molecule: Ac-QATEYEYLDYDFLPETEPPEM [PSGL-1b]
- Km ([5]; acceptor substrate): > 2000 µM
- Km [6]: > 2000 µM
- Km ([7]; acceptor substrate): > 2000 µM

Molecule: RPAPGSTAPPA [Muc1b′, peptide derived from the tandem repeat of human MUC1]
- GalNAc-T2 activity with acceptor peptide ([5]; 0.25 mM peptide in 50-μl assay): 198 ± 9 milliunits/mg
- GalNAc-T2 activity with acceptor peptide ([5]; 1 mM peptide in 50-μl assay): 582 ± 9 milliunits/mg
- GalNAc-T4 activity with acceptor peptide ([4]; 0.25 mM peptide in 50-μl assay): 0.7 ± 0.5 milliunits/mg
- GalNAc-T4 activity with acceptor peptide ([4]; 1 mM peptide in 50-μl assay): 0.9 ± 0.8 milliunits/mg
- GalNAc-T4 activity with substrate (in words) [4]: somewhat poor activities

Molecule: CC(=O)N[C@H]1[C@@H](OP(=O)(O)OP(=O)(O)OC[C@H]2O[C@@H](n3ccc(=O)[nH]c3=O)[C@H](O)[C@@H]2O)O[C@H](CO)[C@@H](O)[C@@H]1O [UDP-GlcNAc]
- incorporation with alternative donor substrate ([4]; Muc7 acceptor peptide): No incorporation

Molecule: PRFQDSSSSKAPPPSLPSPSRLPG [hCG-β]
- GalNAc-T2 activity with acceptor peptide ([5]; 0.06 mM peptide in 50-μl assay): 22 ± 0.5 milliunits/mg
- GalNAc-T2 activity with acceptor peptide ([5]; 0.25 mM peptide in 50-μl assay): 74 ± 2 milliunits/mg

Molecule: AHGVTSAPDTR [Muc1a′, peptide derived from the tandem repeat of human MUC1]
- GalNAc-T2 activity with acceptor peptide ([5]; 0.25 mM peptide in 50-μl assay): 28 ± 5 milliunits/mg
- GalNAc-T2 activity with acceptor peptide ([5]; 1 mM peptide in 50-μl assay): 83 ± 2 milliunits/mg
- specific activity of GalNAc-T3 ([7]; with Muc1a): 0.5 U/mg
- GalNAc-T4 activity with acceptor peptide ([4]; 0.25 mM peptide in 50-μl assay): 2 ± 0.4 milliunits/mg
- GalNAc-T4 activity with acceptor peptide ([4]; 1 mM peptide in 50-μl assay): 6.7 ± 1 milliunits/mg
- GalNAc-T4 activity with substrate (in words) [4]: somewhat poor activities

Molecule: PTTTPISTTTMVTPTPTPTC [Muc2, peptide from the tandem repeats of MUC2]
- GalNAc-T2 activity with acceptor peptide ([5]; 0.06 mM peptide in 50-μl assay): 169 ± 2 milliunits/mg
- GalNAc-T2 activity with acceptor peptide ([5]; 0.25 mM peptide in 50-μl assay): 128 ± 5 milliunits/mg
- GalNAc-T4 activity with acceptor peptide ([4]; 0.06 mM peptide in 50-μl assay): 9 ± 0.5 milliunits/mg
- GalNAc-T4 activity with acceptor peptide ([4]; 0.25 mM peptide in 50-μl assay): 29 ± 0.8 milliunits/mg
